The record followed here is patent US20180155692A1.

The target in this assay is activin-like kinase receptor 3 (ALK3) (human) (UniProt P36894). Briefly: cell-based or functional assay.
Chain of activin-like kinase receptor 3 (ALK3) (human) (P36894 24-532): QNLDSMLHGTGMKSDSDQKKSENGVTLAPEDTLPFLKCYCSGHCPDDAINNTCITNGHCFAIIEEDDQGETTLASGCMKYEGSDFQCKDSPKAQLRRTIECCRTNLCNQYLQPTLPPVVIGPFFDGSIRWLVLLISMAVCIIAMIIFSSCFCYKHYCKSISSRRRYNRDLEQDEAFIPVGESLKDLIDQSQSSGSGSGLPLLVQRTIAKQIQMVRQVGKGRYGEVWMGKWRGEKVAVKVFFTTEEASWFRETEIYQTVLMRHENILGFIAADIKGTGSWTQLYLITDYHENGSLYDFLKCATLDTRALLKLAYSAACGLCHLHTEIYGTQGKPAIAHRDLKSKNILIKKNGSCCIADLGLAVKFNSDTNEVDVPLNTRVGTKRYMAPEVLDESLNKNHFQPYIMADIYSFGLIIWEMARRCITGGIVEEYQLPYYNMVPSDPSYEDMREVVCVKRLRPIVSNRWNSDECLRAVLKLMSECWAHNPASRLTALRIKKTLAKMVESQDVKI

Chain of Bone morphogenetic protein 7 (BMP-7) (P18075 293-431 limits assumed): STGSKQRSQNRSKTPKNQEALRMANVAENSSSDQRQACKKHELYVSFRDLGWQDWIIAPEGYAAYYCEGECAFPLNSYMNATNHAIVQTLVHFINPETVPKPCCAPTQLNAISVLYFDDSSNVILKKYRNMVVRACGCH

“Bone morphogenetic protein 4 (BMP-4) (from UniProt P12644 293-408) (ligand)” came in with a C-peptide production on hNEPT, fold vs. t=0 (n=6) of 198 fold.
For “Bone morphogenetic protein 7 (BMP-7) (from UniProt P18075 293-431) (ligand)”, the BMP-7-mediated induction of C-peptide compared to t=0 (n=4), BMP-7 alone stood at 314 fold; the BMP-7-mediated induction of C-peptide compared to t=0 (n=4), in the presence of dorsomorphin (inhibitor of SMAD1/5/8 phosphorylation) was determined as 108 fold; the C-peptide induction on hNEPT, fold vs. t=0 (n=4, comparison with THR-123) worked out at 261 fold; the C-peptide production on hNEPT, fold vs. t=0 (n=6, comparison with BMP-4) came out at 156 fold. Moreover, the insulin expression by qRT-PCR in ALK3+-sorted cells vs. non-BMP-7 treated controls worked out at 1000 fold.
In the case of THR-123 (peptide), the C-peptide induction on hNEPT, fold vs. t=0 (n=4) was 318 fold.
